Laboratory results: patent publication US20200385438A1 (Stanford University, published 2020)

T1: biotinylated recombinant BH3-tagged mIL-2 (mouse, UniProt P04351 21-169, biotinylated with BirA enzyme (on the tag))
T1 construct: Secreted by Hi5 insect cells and immobilized on an SA sensor chip for SPR; also called biotinylated mouse IL-2; biotinylated IL-2; not shown: BH3 tag
T1 sequence (looked up): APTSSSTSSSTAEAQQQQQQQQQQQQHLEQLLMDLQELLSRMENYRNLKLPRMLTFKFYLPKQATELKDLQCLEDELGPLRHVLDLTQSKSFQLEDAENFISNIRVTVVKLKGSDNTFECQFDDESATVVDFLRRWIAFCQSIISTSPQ

B1: WT (receptor)
CD25 (IL-2Rα) chain: ELCDDDPPEIPHATFKAMAYKEGTMLNCECKRGFRRIKSGSLYMLCTGNSSHSSWDNQCQCTSSATRNTTKQVTPQPEEQKERKTTEMQSPMQPVDQASLPGHCREPPPWENEATERIYHFVVGQMVYYQCVQGYRALHRGPAESVCKMTHGKTRWTQPQLICTGEMETSQFPGEEKPQASPEGRPESETSCLVTTTDFQIQTEMAATMETSIFTTE
notes: also called WT hCD25; wild-type human CD25
B2: E8 (receptor)
CD25 (IL-2Rα) chain: EQCDDDPPEIPHATFKAMAYKEGTVLYCECKRGFRRIKSGSAYMLCTGNSSHSSWDNQCQCTSSATRNTTKQVTPQPEEQKERKTTEMQSPMQPVDQASLPGHCREPPPWENEATERRYWFVVGQMVYYQCVQGYRALHRGPAESVCKMTHGKTRWTQPQLICTGEMETSQFPGEEKPQASPEGRPESETSCLVTTTDFQIQTEMAATMETSIFTTE
notes: also called E8 hCD25
B3: F5 (receptor)
CD25 (IL-2Rα) chain: ELCDDDPPEIPHATFKAMAYKEGTLLVCECKRGFRRIKSGSAYMLCTGNSSHSSWDNQCQCTSSATRNTTKQVTPQPEEQKERKTTEMQSPMQPVDQASLPGHCREPPPWENEATERNYMFVVGQMVYYQCVQGYRALHRGPAESVCKMTHGGTRWTQPQLICTGEMETSQFPGEEKPQASPEGRPESETSCLVTTTDFQIQTEMAATMETSIFTTE
notes: also called F5 hCD25
B4: B5 (receptor)
CD25 (IL-2Rα) chain: ELCDDDPPEIPHATFKAMAYKEGTILVCDCKRGFRRIKSGSAYMLCTGNSSHSSWDNQCQCTSSATRNTTKQVTPQPEEQKERKTTEMQSPMQPVDQASLPGHCREPPPWENEATERRYWFVVGQMVYYQCVQGYRALHRGPAESVCKMTHGQTRWTQPQLICTGEMETSQFPGEEKPQASPEGRPESETSCLVTTTDFQIQTEMAATMETSIFTTE
notes: also called B5 hCD25
B5: WT (receptor)
CD25 (IL-2Rα) chain: ELCLYDPPEVPNATFKALSYKNGTILNCECKRGFRRLKELVYMRCLGNSWSSNCQCTSNSHDKSRKQVTAQLEHQKEQQTTTDMQKPTQSMHQENLTGHCREPPPWKHEDSKRIYHFVEGQSVHYECIPGYKALQRGPAISICKMKCGKTGWTQPQLTCVDEREHHRFLASEESQGSRNSSPESETSCPITTTDFPQPTETTAMTETFVLTME
notes: also called WT mCD25; wild-type mouse CD25
B6: B4 (receptor)
CD25 (IL-2Rα) chain: ELCLYDPPEVPNATFKALSYKNGTILECRCKRGFRRLKELWIVRCLGNSWSSNCQCTSTSHDKSRKQVTAQLEHQKEQQTTTDMQKPTQSMHQENLTGHCREPPPWKHEDSKREYTFVEGQSVHYECIPGYKALQRGPAISICKMKCGKTGWTQPQLTCVDEREHHRFLASEESQGSRNSSPESETSCPITTTDFPQPTETTAMTETFVLTME
notes: also called B4 mCD25

These binders were tested against T2, biotinylated recombinant BH3-tagged hIL-2 (human, UniProt P60568 21-153, biotinylated with BirA enzyme (on the tag)) (assay: SPR (Biacore T100), biotinylated hIL-2 immobilised on an SA chip, soluble CD25 flowed over).
T2 construct: Secreted by Hi5 insect cells and immobilized on an SA sensor chip for SPR; also called biotinylated human IL-2; biotinylated IL-2; not shown: BH3 tag
T2 sequence (P60568 21-153): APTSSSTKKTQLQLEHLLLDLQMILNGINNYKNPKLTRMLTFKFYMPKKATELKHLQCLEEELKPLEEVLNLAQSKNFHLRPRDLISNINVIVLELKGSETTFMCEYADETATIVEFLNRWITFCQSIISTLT
From the text: (§1) FIG. 4A-4B—Sequences and affinities of high affinity CD25 variants. DNA encoding high affinity variants was extracted after clone screens by yeast plasmid minipreps. Sequences for hCD25 (FIG. 4A) and mCD25 (FIG. 4B) clones are aligned with wild-type (WT) CD25. Residues are the same as WT except as noted, and the EAV sequence is not aligned to WT mCD25 due to differences between species. Consensus mutations for hCD25 are highlighted in blue, and deletions are marked by dashes. Affinity measurements for each clone were determined by surface plasmon resonance.
(§2) Surface plasmon resonance (FIG. 4). Sequences of high-affinity CD25 identified from the clone screens were determined by yeast miniprep (Zymo Research), and cloned into pAcBN vectors for expression in Hi5 cells. Soluble high-affinity CD25 proteins were purified by FPLC. Affinity was measured by surface plasmon resonance (Biacore T100), with biotinylated mouse or human IL-2 immobilized on a SA sensor chip (GE Healthcare). CD25 variants were flowed over the chip and the chip was regenerated between runs.
B1 showed a Kd of 2000 pM.
B2 gave a Kd of 45 pM.
B3 was tested, and the Kd was 86 pM.
B4 was tested, and the Kd was 46 pM.

These binders were tested against T1, biotinylated recombinant BH3-tagged … (assay: SPR (Biacore T100), biotinylated mIL-2 immobilised on an SA chip, soluble CD25 flowed over).
From the text: as §1, §2
B5 was tested, and the Kd was 6900 pM.
Work on B6 yielded a Kd of 460 pM.
